The target of assay [1] is HIV-1 gp41 (HXB2 strain) (HIV-1 HXB2) (UniProt P04578). In words: cell-based or functional assay.
Assay [2] concerns the target HIV-1 gp41 (JRFL strain) (HIV-1 JRFL). Nature of the assay: cell-based or functional assay.

In assay [1], “Fuzeon (from UniProt P04578 638-673) (peptide)” came in with an IC50 (HXB2), pseudovirion entry of 3.7 nM and an IC50 (HXB2), single-cycle viral infectivity assay of 3.7 nM. This substance had an IC50 (JRFL), pseudovirion entry in assay [2] of 5 nM.

(Values after patent US20100184663A1.)
